Measured values as given in paper PMC5302063, “In vivo mapping of a dynamic ribonucleoprotein granule interactome in early Drosophila embryos” (FEBS Open Bio, 2016).

Biological target: T1, recombinant Aub with N-terminal His-, Myc- and 3xFLAG-tags (Drosophila, UniProt O76922 1-866)
T1 construct: Aubergine (Aub), Drosophila; aub cDNA cloned into pFastBac/NT-TOPO; also called FLAG-tagged Aub; Aubergine; source: Sf9 (bacmid from pFastBac/NT-TOPO), purified (anti-c-Myc beads, c-Myc peptide elution); not shown: Myc, N-terminal, kept; 3xFLAG, N-terminal, kept
T1 sequence (looked up): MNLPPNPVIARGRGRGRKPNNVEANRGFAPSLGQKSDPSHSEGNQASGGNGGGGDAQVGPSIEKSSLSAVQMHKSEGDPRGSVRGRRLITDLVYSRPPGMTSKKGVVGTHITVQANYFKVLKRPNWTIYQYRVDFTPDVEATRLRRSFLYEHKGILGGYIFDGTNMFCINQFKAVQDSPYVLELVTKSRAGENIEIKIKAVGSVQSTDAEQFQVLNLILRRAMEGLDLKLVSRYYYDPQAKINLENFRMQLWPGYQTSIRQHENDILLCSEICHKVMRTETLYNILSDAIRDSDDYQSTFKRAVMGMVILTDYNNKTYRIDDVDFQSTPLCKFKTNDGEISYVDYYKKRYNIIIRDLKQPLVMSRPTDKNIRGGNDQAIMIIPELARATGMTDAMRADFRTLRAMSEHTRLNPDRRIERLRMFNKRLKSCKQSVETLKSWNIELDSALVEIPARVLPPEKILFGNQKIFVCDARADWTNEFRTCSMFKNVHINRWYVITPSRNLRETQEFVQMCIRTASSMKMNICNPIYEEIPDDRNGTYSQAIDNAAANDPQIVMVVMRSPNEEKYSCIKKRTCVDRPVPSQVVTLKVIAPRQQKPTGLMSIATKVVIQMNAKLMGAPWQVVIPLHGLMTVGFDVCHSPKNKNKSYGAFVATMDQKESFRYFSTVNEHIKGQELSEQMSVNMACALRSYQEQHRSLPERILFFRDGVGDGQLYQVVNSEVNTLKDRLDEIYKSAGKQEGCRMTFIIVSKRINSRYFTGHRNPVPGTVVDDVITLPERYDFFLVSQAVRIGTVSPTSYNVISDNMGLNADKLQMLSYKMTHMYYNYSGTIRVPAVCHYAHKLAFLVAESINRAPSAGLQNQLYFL
Assay: pull-down; purified FLAG-tagged Aub or FLAG-GFP control bound to anti-FLAG beads; purified Myc-eIF4A added in PBS, 0.05% IGEPAL CA-630, 4 °C, 60 min; western blot with anti-c-Myc
Conditions: both partners purified

binding result: binds
B1: Myc-tagged eIF4A (enzyme, Drosophila, UniProt Q02748 1-403, looked up)
chain: MDDRNEIPQDGPASMEPEGVIESTWHEVYDNFDDMNLREELLRGIYGYGFEKPSAIQQRAIIPCVRGRDVIAQAQSGTGKTATFSIAILQQIDTSIRECQALILAPTRELATQIQRVVMALGEYMKVHSHACIGGTNVREDARILESGCHVVVGTPGRVYDMINRKVLRTQYIKLFVLDEADEMLSRGFKDQIQDVFKMLPPDVQVILLSATMPPDVLEVSRCFMRDPVSILVKKEELTLEGIKQFYVNVKQENWKLGTLCDLYDTLSITQSVIFCNTRRKVDQLTQEMSIHNFTVSAMHGDMEQRDREVIMKQFRSGSSRVLITTDLLARGIDVQQVSLVINYDLPSNRENYIHRIGRGGRFGRKGVAINFITDDDRRILKDIEQFYHTTIEEMPANIADLI
notes: eukaryotic translation initiation factor 4A (eIF4A), ATP-dependent RNA helicase, Drosophila; also called Myc-eIF4A; eukaryotic translation initiation factor 4A; source: S2 cells, purified (anti-c-Myc beads, c-Myc peptide elution)
